Laboratory results taken from the supplement of paper PMC10567573.

B1: ZNF75A (parent)
chain: RTHTGEQPYTCSICRRNFSRRSSL

Variants of: B1
Experiment: protein stability index of a GFP-peptide fusion (GPS, HEK-293T) (PSI 1-6); higher = more stable
Settings: c terminus: a fixed tail appended
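Also: lentivirally expressed fusions sorted by FACS into six bins by GFP to DsRed ratio, PSI derived from sequencing read proportions per bin multiplied by bin number.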

Variant | protein stability index
RTHTGEQPYTCSICRRNFSDRSSL [R20D] | 2.46
RTHTGEQPYTCSICRRNFSPRSSL [R20P] | 2.36
RTHTGEQPYTCSICRRNFSQRSSL [R20Q] | 2.13
RTHTGEQPYTCSICRRNFSCRSSL [R20C] | 2.4
RTHTGEQPYTCSICRRNFSTRSSL [R20T] | 2.59
RTHTGEQPYTCSICRRNFSHRSSL [R20H] | 2.53
RTHTGEQPYTCSICRRNFSLRSSL [R20L] | 2.56
RTHTGEQPYTCSICRRNFSERSSL [R20E] | 1.83
RTHTGEQPYTCSICRRNFSNRSSL [R20N] | 2.19
RTHTGEQPYTCSICRRNFSARSSL [R20A] | 2.67
RTHTGEQPYTCSICRRNFSWRSSL [R20W] | 1.52
RTHTGEQPYTCSICRRNFSFRSSL [R20F] | 1.72
RTHTGEQPYTCSICRRNFSMRSSL [R20M] | 2.15
RTHTGEQPYTCSICRRNFSIRSSL [R20I] | 1.73
RTHTGEQPYTCSICRRNFSSRSSL [R20S] | 1.93
RTHTGEQPYTCSICRRNFSGRSSL [R20G] | 3.5
RTHTGEQPYTCSICRRNFSYRSSL [R20Y] | 2.24
RTHTGEQPYTCSICRRNFSVRSSL [R20V] | 2.46
RTHTGEQPYTCSICRRNFSKRSSL [R20K] | 2.12
RTHTGEQPYTCSICRRNFSRRSWL [S23W] | 2.34
RTHTGEQPYTCSICRRNFSRRSTL [S23T] | 2.72
RTHTGEQPYTCSICRRNFSRRSAL [S23A] | 2.67
RTHTGEQPYTCSICRRNFSRRSHL [S23H] | 2.32
RTHTGEQPYTCSICRRNFSRRSKL [S23K] | 3.2

Variant | protein stability index
RTHTGEQPYTCSICRRNFSRRSQL [S23Q] | 2.04
RTHTGEQPYTCSICRRNFSRRSCL [S23C] | 2.85
RTHTGEQPYTCSICRRNFSRRSYL [S23Y] | 1.78
RTHTGEQPYTCSICRRNFSRRSRL [S23R] | 2.9
RTHTGEQPYTCSICRRNFSRRSNL [S23N] | 2.63
RTHTGEQPYTCSICRRNFSRRSGL [S23G] | 2.76
RTHTGEQPYTCSICRRNFSRRSFL [S23F] | 1.78
RTHTGEQPYTCSICRRNFSRRSLL [S23L] | 2.15
RTHTGEQPYTCSICRRNFSRRSEL [S23E] | 2.17
RTHTGEQPYTCSICRRNFSRRSML [S23M] | 2.33
RTHTGEQPYTCSICRRNFSRRSDL [S23D] | 2.28
RTHTGEQPYTCSICRRNFSRRSIL [S23I] | 2.13
RTHTGEQPYTCSICRRNFSRRSVL [S23V] | 2.5
RTHTGEQPYTCSICRRNFSRRSPL [S23P] | 2.94
RTHTGEQPYTCSICRRNNSRRSSL [F18N] | 2.29
RTHTGEQPYTCSICRRNKSRRSSL [F18K] | 2.6
RTHTGEQPYTCSICRRNRSRRSSL [F18R] | 3.99
RTHTGEQPYTCSICRRNSSRRSSL [F18S] | 2.69
RTHTGEQPYTCSICRRNISRRSSL [F18I] | 2.28
RTHTGEQPYTCSICRRNLSRRSSL [F18L] | 2.21
RTHTGEQPYTCSICRRNASRRSSL [F18A] | 3.47
RTHTGEQPYTCSICRRNWSRRSSL [F18W] | 2.31
RTHTGEQPYTCSICRRNVSRRSSL [F18V] | 2.8
RTHTGEQPYTCSICRRNESRRSSL [F18E] | 1.74

Variant | protein stability index
RTHTGEQPYTCSICRRNCSRRSSL [F18C] | 2.57
RTHTGEQPYTCSICRRNMSRRSSL [F18M] | 2.49
RTHTGEQPYTCSICRRNTSRRSSL [F18T] | 2.28
RTHTGEQPYTCSICRRNYSRRSSL [F18Y] | 2.61
RTHTGEQPYTCSICRRNDSRRSSL [F18D] | 2.76
RTHTGEQPYTCSICRRNPSRRSSL [F18P] | 2.14
RTHTGEQPYTCSICRRNHSRRSSL [F18H] | 2.83
RTHTGEQPYTCSICRRNGSRRSSL [F18G] | 2.38
RTHTGEQPYTCSICRRNQSRRSSL [F18Q] | 2.41
RTHTGEQPYTCSICRRNFSRRFSL [S22F] | 2.81
RTHTGEQPYTCSICRRNFSRRNSL [S22N] | 2.65
RTHTGEQPYTCSICRRNFSRRHSL [S22H] | 3.5
RTHTGEQPYTCSICRRNFSRRISL [S22I] | 2.77
RTHTGEQPYTCSICRRNFSRRASL [S22A] | 2.86
RTHTGEQPYTCSICRRNFSRRGSL [S22G] | 2.51
RTHTGEQPYTCSICRRNFSRRKSL [S22K] | 3.16
RTHTGEQPYTCSICRRNFSRRESL [S22E] | 2.77
RTHTGEQPYTCSICRRNFSRRVSL [S22V] | 2.93
RTHTGEQPYTCSICRRNFSRRWSL [S22W] | 2.42
RTHTGEQPYTCSICRRNFSRRQSL [S22Q] | 2.77
RTHTGEQPYTCSICRRNFSRRCSL [S22C] | 2.64
RTHTGEQPYTCSICRRNFSRRPSL [S22P] | 2.76
RTHTGEQPYTCSICRRNFSRRMSL [S22M] | 2.25
RTHTGEQPYTCSICRRNFSRRDSL [S22D] | 2.3

Variant | protein stability index
RTHTGEQPYTCSICRRNFSRRLSL [S22L] | 2.91
RTHTGEQPYTCSICRRNFSRRTSL [S22T] | 3.27
RTHTGEQPYTCSICRRNFSRRRSL [S22R] | 3.55
RTHTGEQPYTCSICRRNFSRRYSL [S22Y] | 2.99
RTHTGEQPYTCSIWRRNFSRRSSL [C14W] | 2.68
RTHTGEQPYTCSIGRRNFSRRSSL [C14G] | 4.72
RTHTGEQPYTCSISRRNFSRRSSL [C14S] | 4.04
RTHTGEQPYTCSIYRRNFSRRSSL [C14Y] | 3.66
RTHTGEQPYTCSIVRRNFSRRSSL [C14V] | 4.03
RTHTGEQPYTCSIIRRNFSRRSSL [C14I] | 4.01
RTHTGEQPYTCSINRRNFSRRSSL [C14N] | 4.11
RTHTGEQPYTCSIMRRNFSRRSSL [C14M] | 3.92
RTHTGEQPYTCSIRRRNFSRRSSL [C14R] | 4.49
RTHTGEQPYTCSIKRRNFSRRSSL [C14K] | 4.03
RTHTGEQPYTCSIHRRNFSRRSSL [C14H] | 3.87
RTHTGEQPYTCSIFRRNFSRRSSL [C14F] | 3.59
RTHTGEQPYTCSIERRNFSRRSSL [C14E] | 4.42
RTHTGEQPYTCSIPRRNFSRRSSL [C14P] | 3.6
RTHTGEQPYTCSILRRNFSRRSSL [C14L] | 3.5
RTHTGEQPYTCSIQRRNFSRRSSL [C14Q] | 3.72
RTHTGEQPYTCSITRRNFSRRSSL [C14T] | 4.21
RTHTGEQPYTCSICRRNFSRRSSA [L24A] | 3.02
